Broadly, the IC50 is the concentration needed to halve the response being measured. As usually defined, the Kd is the equilibrium constant for the complex coming apart. Read a low Kd as a tighter complex. The term EC50 denotes the concentration at which the effect is half-maximal. A higher EC50 goes with weaker potency. One may read the koff as the first-order rate constant of dissociation. Low readings indicate slow dissociation, high ones fast dissociation. As usually defined, the kon is the second-order rate constant of association. A higher kon goes with faster complex formation.

The source of these data is patent publication US20180318438A1, “ANTIBODY DRUG CONJUGATES OF KINESIN SPINDEL PROTEIN (KSP) INHIBITORS WITH ANTI-TWEAKR-ANTIBODIES” (Bayer Pharma Aktiengesellschaft, priority 2015, published 2018).

Data set [1] has as its system Caco-2 cells. Description: Cell permeability, flux assay using Caco-2 cells. The settings on record: basal to apical, 2 h. On the technique in general: Caco-2 monolayers are a common model of the intestinal barrier.
For data set [2], the system named is NCI-H292: human mucoepidermoid lung carcinoma cells. Nature of the data set: Cytotoxicity, MTT assay. The data set is classed as cell-based. The settings on record: NCI-H292, 96 h, metabolites. (Tetrazolium dyes change colour on reduction, which living cells bring about.)
Description: The cells were cultivated according to the standard method using the growth media listed under C-1. […] The cells were then incubated in an incubator at 37° C. and 5% carbon dioxide. […] To this end, the MTT reagent was incubated with the cells for 4 h, followed by lysis of the cells overnight by addition of the detergent. […] The measured data were used to calculate the IC50 of the growth inhibition using the DRC (dose response curve). The proliferation of cells which were not treated with test substance but were otherwise identically treated was defined as the 100% figure.
Data set [3] has as its system KPL4: human breast cancer cell line. Description: Cytotoxicity, MTT assay. Particulars: KPL4, 96 h, metabolites, KPL4 cells. Type of data set: cell-based. Here is the method: The cells were cultivated according to the standard method using the growth media listed under C-1. The test is carried out by detaching the cells with a solution of Accutase in PBS (Biochrom AG #L2143), pelleting, resuspending in culture medium, counting and sowing into a 96-well culture plate with white bottom (Costar #3610) (NCI H292: 2500 cells/well, KPL-4: 1200 cells/well, SK-HEP-1: 1500 cells/well in a total volume of 100 μl). The cells were then incubated in an incubator at 37° C. and 5% carbon dioxide. After 48 h, the medium was replaced. The metabolites in 10 μl of culture medium in concentrations from 10^−5M to 10^−13M were then pipetted to the cells (in triplicate), and the assay was then incubated in an incubator at 37° C. and 5% carbon dioxide. […] To this end, the MTT reagent was incubated with the cells for 4 h, followed by lysis of the cells overnight by addition of the detergent. The dye formed was detected at 570 nm (Infinite M1000 pro, Tec an). The measured data were used to calculate the IC50 of the growth inhibition using the DRC (dose response curve). The proliferation of cells which were not treated with test substance but were otherwise identically treated was defined as the 100% figure.

Data set [4] has as its target T1, TWEAKR on human cells (NCI-H292, 786-O, A498, SK-HEP-1, HEK293) (human, UniProt Q9NP84 28-129).
T1 sequence: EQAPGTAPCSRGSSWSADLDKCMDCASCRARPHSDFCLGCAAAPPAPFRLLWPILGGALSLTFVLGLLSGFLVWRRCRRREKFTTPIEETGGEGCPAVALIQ
Description: cell-based or functional assay.

The target in data set [5] is T2, TPP-2305, hTNFRSF12 amino acids 28-80 (extracellular domain of TWEAKR) (human, UniProt Q9NP84 28-80).
T2 construct: Bought recombinant antigen (Fitzgerald 30R-AT080); also called TWEAKR extracellular domain; 30R-AT080 (Fitzgerald)
T2 sequence: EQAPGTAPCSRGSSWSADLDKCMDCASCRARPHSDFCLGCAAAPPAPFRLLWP
Nature of the data set: SPR (Biacore T200), antibody captured by anti-human Fc on CM5, TWEAKR extracellular domain 3.9-500 nM as analyte, 25 C; monovalent KD.

Data set [6] deals with T1, TWEAKR on human cells (NCI-H292, 786-O, …). Description: flow cytometry on SK-HEP-1 cells, dose curve from 10 ug/ml in 1:5 steps, anti-kappa-FITC secondary.
For data set [7] the target is unchanged. Description: flow cytometry on NCI-H292 cells, dose curve from 10 ug/ml in 1:5 steps, anti-kappa-FITC secondary. Background: A flow cytometer gives signals particle by particle.
For data set [8], the target named is T2, TPP-2305, hTNFRSF12 amino acids 28-80 …. Description: SPR (Biacore T200), antibody captured by anti-human Fc on CM5, TWEAKR extracellular domain 3.9-500 nM as analyte, 25 C.

Where a chain is given by its changes, count along the chain named.

`CC(C)(C)[C@H](c1cc(-c2cc(F)ccc2F)cn1Cc1ccccc1)N(CC[C@H](N)C(=O)N[C@H](CCC(=O)O)C(=O)O)C(=O)CO.O=C(O)C(F)(F)F` [Example M25, N-{(2S)-2-Amino-4-[{(1R)-1-[1-benzyl-4-(2,5-difluorophenyl)-1H-pyrrol-2-yl]-2,2-dimethylpropyl}(glycoloyl)amino]butanoyl}-L-glutamic acid/trifluoroacetic acid (1:1)]: the “Papp (B-A)” value in data set [1] was found to be 0.81 ×10⁻⁶ cm/s.
As to `CC(C)(C)[C@H](c1cc(-c2cc(F)ccc2F)cn1Cc1ccccc1)N(CC[C@H](N)C(=O)NCCNC(=O)CNC(=O)CC(SC[C@H](N)C(=O)O)C(=O)O)C(=O)CO.O=C(O)C(F)(F)F` (stereo partly drawn) [Example M26, 4-[(2-{[2-({(2S)-2-Amino-4-[{(1R)-1-[1-benzyl-4-(2,5-difluorophenyl)-1H-pyrrol-2-yl]-2,2-dimethylpropyl}(glycoloyl)amino]butanoyl}amino)ethyl]amino}-2-oxoethyl)amino]-2-{[(2R)-2-amino-2-carboxyethyl]sulphanyl}-4-oxobutanoic acid/trifluoro acetic acid (1:1)], in data set [1], the “Papp (B-A)” value amounted to 1.3 ×10⁻⁶ cm/s.
As for `CC(C)(C)[C@H](c1cc(-c2cc(F)ccc2F)cn1Cc1ccccc1)N(CC[C@H](N)C(=O)NCCNC(=O)CNC(=O)CC(SC[C@H](N)C(=O)O)C(=O)O)C(=O)CO` (stereo partly drawn) [Example M13, 4-[(2-{[2-({(2S)-2-Amino-4-[{(1R)-1-[1-benzyl-4-(2,5-difluorophenyl)-1H-pyrrol-2-yl]-2,2-dimethylpropyl}(glycoloyl)amino]butanoyl}amino)ethyl]amino}-2-oxoethyl)amino]-2-{[(2R)-2-amino-2-carboxyethyl]sulphanyl}-4-oxobutanoic acid/trifluoroacetic acid (1:1)], the half-maximal inhibitory concentration (IC50) in data set [2] came out at 152 nM; in data set [3], 169 nM.

B1: ITEM-4 (antibody, V domains shown)
VH: QVQLQQSGPELVKPGASVKMSCKASGYTFTDFIIAWVKQRTGQGLEWIGEIYPGTGRTYYSEKFRGKATLTADKSSNTAYMQLSSLTSVDSAVYFCARRTIYYDYDGDYWGQGTTLTVSS
VL: DIVMTQAAFSNPVTLGTSASISCRSSKSLLHSNGITYLYWYLQKPGQSPQLLIYQMSNLASGVPDRFSSSGSGTDFTLRISRVEAEDVGVYYCAHNLELPWTFGGGTKLELK
notes: Murine IgG2b, bought (eBioscience 13-9018); also called anti-TWEAKR AK1A; AK1A
Regarding B1, the “Agonistic activity [%] of the TWEAK-ind. agonism (NF-kappaB reporter gene assay, HEK293)” value (“Agonistic activity [%]” below) in data set [4] was found to be 14%. In data set [5], this molecule had a Kd of 0.7 nM.

B2: TPP-7006 (antibody, human IgG1, kappa, V domains shown)
VH: B1 VH
VL: DIVMTQAAFSNPVTLGTSASISCRSSKSLLHSNGITYLYWYLQKPGQSPQLLIYQMSNLASGVPDRFSSSGSGTDFTLRISRVEAEDVGVYYCAHNLELPWTFGGGTKLELKR
notes: also called anti-TWEAKR AK1C; AK1C
For B2, the “Agonistic activity [%]” value in data set [4] came out at 3%. The same molecule came in with a Kd in data set [5] of 0.33 nM. Further, the results for the concentration giving a half-maximal response (EC50) in data set [6] and in data set [7] were 0.83 nM and 0.54 nM, respectively.

B3: TPP-7007 (antibody, human IgG1, kappa, V domains shown)
VH: QVQLVQSGAEVKKPGASVKVSCKASGYTFTDFIIAWVKQAPGQGLEWIGEIYPGTGRTYYSEKFRGKATLTADTSTSTAYMELSSLRSEDTAVYFCARRTIYYDYDGDYWGQGTLVTVSS
VL: DIVMTQSPLSLPVTPGEPASISCRSSKSLLHSNGITYLYWYLQKPGQSPQLLIYQMSNLASGVPDRFSGSGSGTDFTLKISRVEAEDVGVYYCAHNLELPWTFGQGTKVEIKR
notes: also called anti-TWEAKR AK1D; AK1D
Regarding B3, the “Agonistic activity [%]” value in data set [4] worked out at 4%. This molecule also registered an equilibrium dissociation constant (Kd) in data set [5] of 1.4 nM. The results for the half-maximal effective concentration (EC50) in data set [6] and in data set [7] were 0.9 nM and 0.8 nM, respectively.

B4: TPP-7005 (antibody, human IgG1, kappa, V domains shown)
VH: B3 VH with V20I, A24V, Q43K, T74K, F95Y, L115T
VL: B3 VL with G69S, Q105G
notes: also called anti-TWEAKR AK1B; AK1B
For B4, in data set [4], the “Agonistic activity [%]” value came to 0.1% and the “Antagonistic activity IC50 [M] (NF-kappaB reporter gene assay in the presence of Tweak 200 ng/ml)” value turned out to be 2e-11 M. In data set [8], this molecule returned a dissociation rate constant (koff) of 0.0018 s⁻¹ and a kon of 6.8e+06 M⁻¹ s⁻¹. In data set [5], this molecule had a Kd of 0.26 nM. Also, the midpoint of the response in data set [6], the EC50, lay at 0.54 nM. Besides, in data set [7], a half-maximal effect (EC50) was put at 0.5 nM.

B5: TPP-7075 (antibody, human IgG1, kappa, V domains shown)
VH: B3 VH
VL: B3 VL with N33S
Regarding B5, in data set [4], the “Agonistic activity [%]” value was found to be 15% and the “Antagonistic activity IC50 [M] (NF-kappaB reporter gene assay in the presence of Tweak 200 ng/ml)” value is 2.4e-08 M. Besides, in data set [5], the Kd was determined as 6 nM. For the same molecule, the 50% effective concentration (EC50) in data set [7] is 8.9 nM.
